According to paper PMC12508155 (Nature Communications, 2025):

Assays:
[1] = tested on: Gd-II riboswitch (guanidine class II riboswitch) (RNA, riboswitch) GCCCUAGGGACGACCCUAGAAGGCCAAGCAACCUGCGGGACGACCCGC; assay: in-line probing; settings: 100 mM KCl, 20 mM MgCl2, 50 mM Tris-HCl pH 8.3, 25 °C, 40 h; for apparent KD: Hill fit, two binding sites
MgdL = target: T1, MgdL (Vreelandella boliviensis, UniProt A0A265DXW6); assay: LC-MS time course, coupled with MgdH; type: biochemical; settings: N-(hydroxymethyl)guanidine formed in situ by MgdH from 0.5 mM methylguanidine with 5 mM 2-OG; MgdL 20 µg/mL
T1 construct: gene CE457_11615; full length, N-terminal 6xHis tag with TEV site (cleavage not mentioned), expressed in E. coli BL21
T1 sequence (A0A265DXW6 1-250): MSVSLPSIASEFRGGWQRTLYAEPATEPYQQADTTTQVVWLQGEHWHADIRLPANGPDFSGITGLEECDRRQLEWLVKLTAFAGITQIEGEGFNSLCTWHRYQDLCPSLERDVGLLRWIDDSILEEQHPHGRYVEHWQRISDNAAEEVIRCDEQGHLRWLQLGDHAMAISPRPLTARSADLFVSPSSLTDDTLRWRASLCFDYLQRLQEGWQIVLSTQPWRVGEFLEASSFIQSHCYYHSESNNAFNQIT

[2] = substrate: CN(C)C(=N)N; assay: oxygen consumption, Clark-type electrode; type: biochemical, Vreelandella boliviensis; settings: 2-OG 5 mM, Fe(II), ascorbate, MOPS pH 7.2, 30 °C
[3] = substrate: O=C(O)CCC(=O)C(=O)O; assay: oxygen consumption, Clark-type electrode; type: biochemical, Vreelandella boliviensis; settings: methylguanidine fixed at 2.5 mM, Fe(II), ascorbate, MOPS pH 7.2, 30 °C
[4] = substrate: CNC(=N)N; assay: oxygen consumption, Clark-type electrode; type: biochemical, Vreelandella boliviensis; settings: 2-OG fixed at 10 mM (5 mM in Methods), Fe(II), ascorbate, MOPS pH 7.2, 30 °C

## CN(C)C(=N)N
[1]; no conformational change, highest concentration not in material
  binding: no

## N=C(N)N
[1]
  apparent KD: 93 ± 6 µM

## N=C(N)NCO [N-(hydroxymethyl)guanidine]
MgdL
  LC-MS time course, coupled with MgdH: its presence clearly accelerated the fragmentation of N-(hydroxymethyl)guanidine

## CNC(=N)N
[1]
  apparent KD: 83 ± 5 µM

B1: MgdH (Vreelandella boliviensis LC1) (protein)
chain: MSQASNDLRLADFQAIPVIDIGDLLSGDLNARKAVAEQLGRAAREVGFFQMVGHGINPSLRQGLINQAKRFFAQPTETKMERYIGLYHHHRGYVPPGEESPDPNNPDMKEAFDLAFELPSDDPDVLAGTALLGPNPWPALEGFRQPVAAYYDAAYQVGRALMGGFALALGHEESHFLHHVTKPPSQLRLIHYPYNPDAEDAQGIGAHTDYECFTLLLPTAPGLEVMNGAGEWIDVPFRDDALVVNIGDMLEIWSNGEFVATSHRVRKVKEERYSFPLFFACDYHTVVAPLPELVKRHGQAFYPPLKAGDHLYAQTIQTFNYLRERLARGEIALPDGAREVGSLGQHGKHKETP
notes: full length, N-terminal 6xHis tag with TEV site (cleavage not mentioned), expressed in E. coli BL21, 41 kDa
[2]
  Km: 250 ± 10 µM
  kcat: 17.3 ± 0.2 s⁻¹
[3]
  Km: 530 ± 50 µM
  kcat: 20.5 ± 0.5 s⁻¹
[4]
  Km: 160 ± 10 µM
  kcat: 19.6 ± 0.4 s⁻¹
